Results taken from paper PMC11684626.

Biological target: HA-PEG10 gag-pol (Homo sapiens) (UniProt Q86TG7)
Experiment: co-sedimentation; crude VLP preparation: conditioned medium of co-transfected HEK293 cells, cleared at 2700 x g, ultracentrifuged at 134,000 x g for 4 hr at 4°C over a 30% sucrose cushion; pellet analysed by western blot

Sequence of UniProt Q86TG7 (Q86TG7 whole entry): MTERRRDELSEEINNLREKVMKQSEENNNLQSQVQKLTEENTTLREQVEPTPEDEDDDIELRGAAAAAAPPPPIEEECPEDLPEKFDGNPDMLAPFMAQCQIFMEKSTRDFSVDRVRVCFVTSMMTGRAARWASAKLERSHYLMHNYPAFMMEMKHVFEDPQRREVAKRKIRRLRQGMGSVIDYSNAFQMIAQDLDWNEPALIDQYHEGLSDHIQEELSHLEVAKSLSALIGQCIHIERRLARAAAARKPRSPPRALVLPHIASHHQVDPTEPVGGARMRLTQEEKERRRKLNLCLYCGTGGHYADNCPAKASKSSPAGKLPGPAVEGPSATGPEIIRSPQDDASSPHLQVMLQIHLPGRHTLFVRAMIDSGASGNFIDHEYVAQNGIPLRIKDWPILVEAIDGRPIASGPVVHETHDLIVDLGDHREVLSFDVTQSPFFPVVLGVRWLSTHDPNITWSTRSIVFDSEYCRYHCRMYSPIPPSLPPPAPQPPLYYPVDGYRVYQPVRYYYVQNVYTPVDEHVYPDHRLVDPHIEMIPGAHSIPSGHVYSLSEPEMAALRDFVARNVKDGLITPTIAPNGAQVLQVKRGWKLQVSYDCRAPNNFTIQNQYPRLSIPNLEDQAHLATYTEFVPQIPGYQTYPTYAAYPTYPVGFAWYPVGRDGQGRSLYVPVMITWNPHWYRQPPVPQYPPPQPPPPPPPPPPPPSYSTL

**Q.** With “HA-HsRTL8c (from UniProt A6ZKI3 1-113) (natural protein)” as the substance, how does the abundance of RTL8 relative to HA-PEG10 in the VLP fraction read?
**A.** 5%
